The source of these data is patent US10556936B2, “Immunogenic proteins and fragments thereof from allergenic mites” (ALK-ABELLÓ A/S, priority 2016, dated 2020).

Assay type in all cases: cell-based, human
Series [1] has as its system basophils in whole blood from HDM allergic donors. As to the kind of experiment: Basophil Activation Test (BAT). As to conditions: blood from HDM allergic individuals (n=14). As to the method:
Basophil Activation Test (BAT) was used as a predictive in vitro assay for indication of safety/immediate hypersensitivity reactions. The BAT assay is a widely used diagnostic test that is also used for evaluation of allergenicity of allergen derived components. In short: whole blood from HDM allergic donors was stimulated for 1 h with the proteins, and the increased expression of activation markers on the surface of basophils were measured by flow cytometry. The BAT test was carried out using different concentrations of the proteins and the allergens Der p 2 and Der p 1 was used as controls and tested in the same concentration rates.
(§1) This example relates to the further testing of immunogenicity of the proteins identified in Example 1. Their ability to react with IgE antibodies in HDM allergic individuals, to stimulate in vitro T cell proliferation of HDM allergic individuals and non-allergics, and to stimulate ex vivo cytokine production of HDM allergic individuals and non-allergics. The following tests were used: • Basophil Activation Test (BAT) was used as a predictive in vitro assay for indication of safety/immediate hypersensitivity reactions. BAT test was carried out using blood from HDM allergic individuals (n=14), and by use of different concentrations of test proteins or the major house dust mite allergens (Der p 1, Der f 1, Der p 2 or Der f 2, e.g. a concentration of 1, 10, 100 or 1000 ng/ml. • In vitro T cell reactivity determined in T cell lines obtained from HDM allergic individuals (n=30) and non-allergics (n=8): Determined by establishment of HDM specific T-cell lines according to standard methods. In short, PMBCs from HDM allergic donors were cultured for 3 weeks in the presence of house dust mite allergen extract. The responses to proteins at a concentration of 0.5 ug/ml or 2 ug/ml of the test protein or the major house dust mite allergens (Der p 1, Der f 1, Der p 2 or Der f 2) were assessed by proliferation in a standard 72 h T cell proliferation assay, as described in Henmar H et al., Clin Exp Immunol 2008; 153(3):316-23. […]. • Ex vivo stimulation of PBMC cells obtained from mite allergic patients (n=16) and non-allergics (n=6): Determined by measuring the production of the cytokines; IFN-gamma, IL-9, IL-10, IL-17 and IL-31 following stimulation with test protein in concentration up to 10 ug/ml. Freshly isolated PBMC 5×10^6/ml were cultured with a test protein for 5 days and cell supernatant were harvested and stored at −80° C. Cytokines of the supernatants were measured using ProcartaPlex Multiplex Immunoassays with MAGPIX Multiplex Reader according manufactory protocol.

Series [2] has as its system T cell lines obtained from HDM allergic individuals and non-allergics. The series can be described thus: In vitro T cell proliferation test in T cell lines (Example 3). As to conditions: 0.5 or 2 ug/ml, 72 h; for % responders of in-vitro T cell proliferation test, Allergic: T cell lines from HDM allergic individuals (n=30); for % responders of in-vitro T cell proliferation test, Non-allergics: T cell lines from non-allergics (n=8).
Source text: as §1

For series [3], the system named is PBMC cells obtained from mite allergic patients and non-allergics. The series can be described thus: Ex vivo stimulation of PBMC: cytokine production (IFN-gamma, IL-9, IL-10, IL-17, IL-31).
Source text: as §1

B1: A017: house dust mite protein; SEQ ID NO: 21 (Der f), 25 (Der p), 313 (Blo t) (protein)
chain: MSSSSGKKYDFSGKVALVTGSSSGIGAAIALQFAQYGAQVTITGRDAAALESVAKRIEAESGHQPLQIVGNLLDQSLPAKLIDGTISKYGRLDFLVNNAGFSTQHRDIHDEKLMEAFDQVYGLNVRAVVQLSQLAATHLEKSKGNIINISSNLSMMPVHIIYSSSKAALDMITKTMAMEFGKKGVRVNSINPGPVATQFMRSLGMPVTFLKENEEFVKELTLLKFVAQPVEIANLASFLASDDARNMTGSIVVNDTGSLLAPRVDFKKLDEIKKK
Consider B1, for which the “# of individuals of 14 with positive BAT test” value in series [1] (1 ng/ml) is 0. Besides, in series [1] (10 ng/ml), the “# of individuals of 14 with positive BAT test” value is listed as 0. The “# of individuals of 14 with positive BAT test” value in series [1] (100 ng/ml) stood at 0. In addition, the “# of individuals of 14 with positive BAT test” value in series [1] (1000 ng/ml) was 0. Also, in series [2], the “% responders of in-vitro T cell proliferation test, Allergic” value came to 7% and the “% responders of in-vitro T cell proliferation test, Non-allergics” value (“% responders … Non-allergics” below) is 0%. Also, in series [3], the “% HDM allergic individuals with cytokine production in ex-vivo T cell assay IL-5” value is given as 0%, the “% HDM allergic individuals with cytokine production in ex-vivo T cell assay IL-9” value was determined as 0%, the “% HDM allergic individuals with cytokine production in ex-vivo T cell assay IL-10” value was determined as 25% and the “% HDM allergic individuals with cytokine production in ex-vivo T cell assay IL-13” value was 0%. For the same molecule, in series [3], the “% HDM allergic individuals with cytokine production in ex-vivo T cell assay IL-17” value is on record as 13%, the “% HDM allergic individuals with cytokine production in ex-vivo T cell assay IL-31” value was found to be 0%, the “% HDM allergic individuals with cytokine production in ex-vivo T cell assay INF-g” value is recorded as 6% and the “% non-allergic individuals with cytokine production in ex-vivo T cell assay IL-5” value is on record as 0%. Moreover, in series [3], the “% non-allergic individuals with cytokine production in ex-vivo T cell assay IL-9” value is on record as 0%, the “% non-allergic individuals with cytokine production in ex-vivo T cell assay IL-10” value is recorded as 33%, the “% non-allergic individuals with cytokine production in ex-vivo T cell assay IL-13” value is listed as 0% and the “% non-allergic individuals with cytokine production in ex-vivo T cell assay IL-17” value amounted to 17%. In series [3], the “% non-allergic individuals with cytokine production in ex-vivo T cell assay IL-31” value came to 0% and the “% non-allergic individuals with cytokine production in ex-vivo T cell assay INF-g” value is on record as 0%.

B2: A016: house dust mite protein; SEQ ID NO: 28 (Der f), 29 (Der p) (protein)
chain: MVKIGINGFGRIGRLVLRAAIKKGVEVAAINDPFLDVKYMVYMFKFDSTHGRYQGEVKEEGGLLVVDGQKIQVFQERNPAEIPWGKVGADYVVESTGVFTTIEKAKAHLAGGAKKVIISAPSADAPMYVMGVNHDKYDPKQQIISNASCTTNCLAPLAKVINDKFGIENGLMTTVHAITATQKTVDGPSGKLWRDGRGAGQNIIPASTGAAKAVGKVIPELNGKLTGMALRVPVPDVSVVDLTVTLKNPASYDEIKAAVKAAAESDHWKGILEYTDEEVVSSDFISDTHSSIFDAKAGIALTPTFVKLIAWYDNEFGYSNRVVDLIKYVASK
In the case of B2, the “# of individuals of 14 with positive BAT test” value in series [1] (1 ng/ml) worked out at 0. The “# of individuals of 14 with positive BAT test” value in series [1] (10 ng/ml) was found to be 0. Moreover, in series [1] (100 ng/ml), the “# of individuals of 14 with positive BAT test” value came out at 0. The “# of individuals of 14 with positive BAT test” value in series [1] (1000 ng/ml) was 0. Further, in series [2], the “% responders of in-vitro T cell proliferation test, Allergic” value came to 7% and the “% responders … Non-allergics” value was found to be 0%. In addition, in series [3], the “% HDM allergic individuals with cytokine production in ex-vivo T cell assay IL-5” value is listed as 6%, the “% HDM allergic individuals with cytokine production in ex-vivo T cell assay IL-9” value is on record as 0%, the “% HDM allergic individuals with cytokine production in ex-vivo T cell assay IL-10” value turned out to be 25% and the “% HDM allergic individuals with cytokine production in ex-vivo T cell assay IL-13” value came to 13%. Also, in series [3], the “% HDM allergic individuals with cytokine production in ex-vivo T cell assay IL-17” value is 13%, the “% HDM allergic individuals with cytokine production in ex-vivo T cell assay IL-31” value is 0%, the “% HDM allergic individuals with cytokine production in ex-vivo T cell assay INF-g” value worked out at 6% and the “% non-allergic individuals with cytokine production in ex-vivo T cell assay IL-5” value came out at 0%. In series [3], the “% non-allergic individuals with cytokine production in ex-vivo T cell assay IL-9” value stood at 0%, the “% non-allergic individuals with cytokine production in ex-vivo T cell assay IL-10” value was found to be 0%, the “% non-allergic individuals with cytokine production in ex-vivo T cell assay IL-13” value was determined as 0% and the “% non-allergic individuals with cytokine production in ex-vivo T cell assay IL-17” value stood at 17%. Moreover, in series [3], the “% non-allergic individuals with cytokine production in ex-vivo T cell assay IL-31” value was 0% and the “% non-allergic individuals with cytokine production in ex-vivo T cell assay INF-g” value is given as 0%.

B3: A014: house dust mite protein; SEQ ID NO: 32 (Der f), 33 (Der p) (protein)
chain: IEQVHIALGSNETEIIVTWTEPHKHDDKTSDAVVYYGQAKSSFDQKVKAISEYFKDDKTKYTTYRALLTGLLPGTEYHYRIQMDDLESSIFEFKTLKTGEENWLPRFAIYGDLGYVNEQSLPYLKKDVEQNLFDVIFHIGDFAYDLNDEHGKVGHHFMRSIEPVASKVAYMTCPGNHERHDNFSHYDSRFSMIGDRSQPIHSDKLNKRLNNHFHSMTIGPATIILFSTEYYYYTKYGWQQIEHQYRWLEQELKRANENRQKHPWIIVMGHRPLYCLKMGDDSCDHQTMERKEIRQGIRMHDEGERQYGLEDLFFKYGVDIQFYGHEHFYARLFPIYKYKMYNGTKSKNPYDHPGAPIHITTGSAGNKELHPEFNHLNDWVAEHFYDYGYTRLMFEDKYRIRLQQISDDQHGKVLDEIEIVKSSPQPHWMNVEHH
Take B3: in series [1] (1 ng/ml), the “# of individuals of 14 with positive BAT test” value amounted to 0. Moreover, the “# of individuals of 14 with positive BAT test” value in series [1] (10 ng/ml) came to 0. Moreover, the “# of individuals of 14 with positive BAT test” value in series [1] (100 ng/ml) amounted to 0. Further, the “# of individuals of 14 with positive BAT test” value in series [1] (1000 ng/ml) is 0. Besides, in series [2], the “% responders of in-vitro T cell proliferation test, Allergic” value is recorded as 43% and the “% responders … Non-allergics” value was 0%. In series [3], the “% HDM allergic individuals with cytokine production in ex-vivo T cell assay IL-5” value was 6%, the “% HDM allergic individuals with cytokine production in ex-vivo T cell assay IL-9” value is 0%, the “% HDM allergic individuals with cytokine production in ex-vivo T cell assay IL-10” value was 25% and the “% HDM allergic individuals with cytokine production in ex-vivo T cell assay IL-13” value stood at 6%. Besides, in series [3], the “% HDM allergic individuals with cytokine production in ex-vivo T cell assay IL-17” value came out at 31%, the “% HDM allergic individuals with cytokine production in ex-vivo T cell assay IL-31” value was found to be 0%, the “% HDM allergic individuals with cytokine production in ex-vivo T cell assay INF-g” value is listed as 13% and the “% non-allergic individuals with cytokine production in ex-vivo T cell assay IL-5” value was determined as 0%. In series [3], the “% non-allergic individuals with cytokine production in ex-vivo T cell assay IL-9” value is listed as 0%, the “% non-allergic individuals with cytokine production in ex-vivo T cell assay IL-10” value is given as 33%, the “% non-allergic individuals with cytokine production in ex-vivo T cell assay IL-13” value was 0% and the “% non-allergic individuals with cytokine production in ex-vivo T cell assay IL-17” value amounted to 33%. Moreover, in series [3], the “% non-allergic individuals with cytokine production in ex-vivo T cell assay IL-31” value came to 0% and the “% non-allergic individuals with cytokine production in ex-vivo T cell assay INF-g” value was 33%.
